Substitutions are numbered along the chain they refer to.
T1: CTLA4-his (UniProt P16410 36-161, limits assumed)
T1 construct: construct not described; also called Ag CTLA4-his; Antigen CTLA4-his; not shown: his tag
T1 sequence (looked up): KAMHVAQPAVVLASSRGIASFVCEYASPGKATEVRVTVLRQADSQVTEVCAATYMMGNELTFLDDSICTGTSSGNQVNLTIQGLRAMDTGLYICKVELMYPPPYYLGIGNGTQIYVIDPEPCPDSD

T2: CTLA4-Fc (UniProt P16410 36-161, limits assumed)
T2 sequence (looked up): T1 sequence (looked up)

T3: human CTLA-4 (human, UniProt P16410 36-161, limits assumed)
T3 construct: also called HuCTLA-4; human cytotoxic T lymphocyte antigen-4
T3 sequence: T1 sequence (looked up)

T4: cyno Macaque CTLA-4 (cyno Macaque, UniProt G7PL88 36-161)
T4 construct: ELISA antigen; construct not described; also called CynoCTLA-4; cyno CTLA-4
T4 sequence: T1 sequence (looked up) with S14N, I18T, L106M

B1: Humanized Ab 15 (VH7 + VL3) (antibody, human IgG1, kappa, V domains shown)
VH: QVQLVQSGAEVVKPGASVKISCKASGYKFTDHFINWVKQNPGQGLEWIGDINPNNGGTNSNQKFEGKATLTVDKSISTAYMELRRLRSDDTAVYYCARLRREYFYAMDYWGQGTLVTVSS
VL: DIVMTQSPLSLPVTPGEPASISCRSSKSLLHSNGITYLYWYLQKPGQSPQLLIYQMSNLASGVPDRFSSSGSGTDFTLKISRVEAEDVGVYYCAQNLELPLTFGGGTKLEIKR
notes: Humanized IgG1 derived from MAb A4
B2: chimeric IgG (antibody, V domains shown)
VH: EVQLRQSGPELVKPGTSVKISCKASGYKFTDHFINWVKQNHGKSLEWIGDINPNNGGTNSNQKFEGKATLTVDKSSSTAYMELRSLTSEDSAVYYCARLRREYFYAMDYWGQGTSVTVSS
VL: B1 VL with S7A, P8A, L9F, L11N, P15L, E17T, P18S, K79R, G105A, I111L
notes: Variable domains of MAb A4 on human IgG1 and kappa, expressed in HEK293; also called murine-human chimeric antibody derived from murine antibody A4
B3: MAb A4 (13F10D7) (antibody, V domains shown)
VH: B2 VH
VL: DIVMTQAAFSNPVTLGTSASISCRSSKSLLHSNGITYLYWYLQKPGQSPQLLIYQMSNLASGVPDRFSSSGSGTDFTLRISRVEAEDVGVYYCAQNLELPLTFGAGTKLELK
notes: also called Murine MAb A4; murine antibody A4
B4: MAb A1 (16A9E9) (antibody, V domains shown)
VH: DVQLQESGPGLVKPSQSLSLTCSVTGDSITSGYYWNWIRQFPGNKLEWMGYISYDGINNYYPSLENRISITRDTSRNQFFLKLNSVTTEDTATYYCAREVVTPGVEVPAWYFDVWGTGTTVTVSS
VL: DIVLTQSPTSLTVSLGQRAIISCKASQSVSFAGTGLMHWYQQKPGQQPKLLIYRASNLEAGVPTRFSGSGSRTDFTLNIHPVEEDDAATYYCQQSREYPWTFGGGTTLEIN
notes: also called murine antibody A1

Tests used:
CTLA4-his [1] = molecular target: T1, CTLA4-his; assay: SPR Biacore 8k, purified antibody captured on chip, CTLA4-his as analyte
Procedure: (§1) The affinities of purified antibody binding to CTLA4-his was determined using a Surface Plasmon Resonance (SPR) biosensor, Biacore 8k. Antibodies were immobilized on the sensor chip through capture method. Antigen CTLA4-his was used as the analyte. The data of dissociation (kd) and association (ka) rate constants were obtained using Biacore 8k evaluation software. The equilibrium dissociation constants (KD) were calculated from the ratio of kd over ka.

CTLA4-Fc [2] = molecular target: T2, CTLA4-Fc; assay: cell-based or functional assay
CTLA4-his [3] = molecular target: T1, CTLA4-his; assay: SPR Biacore T200, antibody from supernatant captured by anti-human Fc, CTLA4-his injected
Procedure: (§2) Affinity ranking of the fifteen humanized antibodies was determined using a Surface Plasmon Resonance (SPR) biosensor, Biacore T200 (GE Healthcare). Anti-human Fc gamma specific antibody was immobilized onto the sensor chip using amine coupling method. […] After equilibration, Ag CTLA4-his was injected for 300 seconds (association phase) followed by the injection of running buffer for 600s (dissociation phase). Responses of reference flow cell (flow cell 1) were subtracted from those of humanized antibodies flow cells during each cycle. The surface was regenerated before the injection of other humanized antibodies. The process was repeated until all antibodies are analyzed. The off-rates of humanized antibodies were obtained from fitting the experimental data locally to 1:1 interaction model using the Biacore 8K evaluation software. The antibodies were ranked by their dissociation rate constants (off-rates, kd).

CTLA4-his [4] = molecular target: T1, CTLA4-his; assay: SPR Biacore T200, antibody from supernatant captured by anti-human Fc, CTLA4-his injected; supernatant antibody, off-rate ranking, 600 s dissociation
Procedure: as §2

CTLA4-Fc [5] = molecular target: T2, CTLA4-Fc; assay: SPR Biacore T200, CTLA4-Fc amine-coupled, antibody as analyte; apparent KD
Procedure: (§3) Antigen CTLA4-Fc was immobilized on the sensor chip through amine coupling method. Antibody was used as the analyte. The data of dissociation (kd) and association (kₐ) rate constants were obtained using Biacore T200 evaluation software. The apparent equilibrium dissociation constants (KD) were calculated from the ratio of kd over kₐ.

CTLA4-Fc [6] = molecular target: T2, CTLA4-Fc; assay: SPR Biacore T200, CTLA4-Fc amine-coupled, antibody as analyte
Procedure: as §3

CTLA4-his [7] = molecular target: T1, CTLA4-his; assay: SPR Biacore 8k, purified antibody captured on chip, CTLA4-his as analyte; purified antibody, Biacore 8k
Procedure: as §1

human CTLA-4 [8] = molecular target: T3, human CTLA-4; assay: ELISA, human CTLA-4 binding
cyno Macaque CTLA-4 = molecular target: T4, cyno Macaque CTLA-4; assay: ELISA, cyno CTLA-4 binding
CTLA4-Fc [9] = molecular target: T2, CTLA4-Fc; assay: cell-based or functional assay; remark: listed apart in the source
CTLA4-his [10] = molecular target: T1, CTLA4-his; assay: SPR Biacore 8k, purified antibody captured on chip, CTLA4-his as analyte (as the text says; same values as Table 5)
human CTLA-4 [11] = molecular target: T3, human CTLA-4; assay: ligand blocking assay with purified proteins; competitor CD80
human CTLA-4 [12] = molecular target: T3, human CTLA-4; assay: ratio of the IC50 for blocking CD80 to the IC50 for blocking CD86 on CTLA-4
human CTLA-4 [13] = molecular target: T3, human CTLA-4; assay: ligand blocking assay with purified proteins; competitor CD86
murine CTLA-4 = molecular target: T5, murine CTLA-4 (murine, UniProt P09793 36-161, limits assumed); assay: ELISA, murine CTLA-4 binding assay
T5 construct: ELISA antigen; construct not described; also called mouse CTLA-4

human CTLA-4 [14] = molecular target: T3, human CTLA-4; assay: ligand blocking assay with purified proteins; competitor CD80; CD80 as competing ligand, purified proteins

Row | Binder | Kd (CTLA4-his [1]) [nM] | kon (CTLA4-his [1]) [M⁻¹ s⁻¹] | Kd (CTLA4-his [3]) [nM] | kon (CTLA4-his [3]) [M⁻¹ s⁻¹] | Kd (CTLA4-Fc [5]) [nM] | koff (CTLA4-Fc [6]) [s⁻¹] | kon (CTLA4-Fc [6]) [M⁻¹ s⁻¹] | EC50 (human CTLA-4 [8]) [nM] | EC50 (cyno Macaque CTLA-4) [nM] | IC50 (nM), IL-2 secreted by Jurkat cells co-cultured with CHO/CD80 cells, Experiment 1 (CTLA4-Fc [9]) [nM] | IC50 (nM), IL-2 secreted by Jurkat cells co-cultured with CHO/CD80 cells, Experiment 2 (CTLA4-Fc [9]) [nM] | CD80/CD86 Blocking Ratio (human CTLA-4 [12]) | IC50 (human CTLA-4 [13]) [nM] | binding result (murine CTLA-4) | also measured
1 | B1 | 0.0142 | 727000 | ≤ 0.0472 | 212000 |  |  |  |  |  |  |  |  |  |  | koff (CTLA4-his [1]): 1.03e-05 s⁻¹; IC50 (nM), Jurkat cell activation assay of Example 2 (IL-2) (CTLA4-Fc [2]): 3.1 nM; koff (CTLA4-his [4]): ≤ 1e-05 s⁻¹
2 | B2 | 0.0131 | 765000 | 0.0602 | 430000 | 0.082 | 5.09e-05 | 621000 |  |  |  |  |  |  |  | koff (CTLA4-his [3]): 2.59e-05 s⁻¹; koff (CTLA4-his [7]): ≤ 1e-05 s⁻¹
3 | B3 |  |  |  |  | 0.963 | 0.000551 | 573000 | 0.034 | 0.024 | 11 | 13.2 | 2.01 | 0.287 | no binding | Kd (CTLA4-his [10]): 0.963 nM; koff (CTLA4-his [10]): 0.000551 s⁻¹; kon (CTLA4-his [10]): 573000 M⁻¹ s⁻¹; IC50 (human CTLA-4 [11]): 0.579 nM
4 | B4 |  |  |  |  |  |  |  | 0.058 | 0.01 | 19.3 | 18.5 | 6.49 | 0.365 | no binding | IC50 (human CTLA-4 [14]): 2.37 nM

From patent US20200055937A1 (REMD BIOTHERAPEUTICS, published 2020)
